Measurements published in patent US20150098945A1 (Daiichi Sankyo, published 2015).
Values belong to the binder of their own block, whether it stands above or below them.

Legend:
[1] = biological target: T1, rat ROBO4 (pCI-raROBO4-transfected HEK293 cells) (rat, UniProt Q80W87 38-949 at identity 0.93)); experiment: flow cytometry (FC500), HEK293 cells transfected with pCI-raROBO4, FITC goat anti-human IgG Fc; control histogram IgG (human IgG)
T1 chain: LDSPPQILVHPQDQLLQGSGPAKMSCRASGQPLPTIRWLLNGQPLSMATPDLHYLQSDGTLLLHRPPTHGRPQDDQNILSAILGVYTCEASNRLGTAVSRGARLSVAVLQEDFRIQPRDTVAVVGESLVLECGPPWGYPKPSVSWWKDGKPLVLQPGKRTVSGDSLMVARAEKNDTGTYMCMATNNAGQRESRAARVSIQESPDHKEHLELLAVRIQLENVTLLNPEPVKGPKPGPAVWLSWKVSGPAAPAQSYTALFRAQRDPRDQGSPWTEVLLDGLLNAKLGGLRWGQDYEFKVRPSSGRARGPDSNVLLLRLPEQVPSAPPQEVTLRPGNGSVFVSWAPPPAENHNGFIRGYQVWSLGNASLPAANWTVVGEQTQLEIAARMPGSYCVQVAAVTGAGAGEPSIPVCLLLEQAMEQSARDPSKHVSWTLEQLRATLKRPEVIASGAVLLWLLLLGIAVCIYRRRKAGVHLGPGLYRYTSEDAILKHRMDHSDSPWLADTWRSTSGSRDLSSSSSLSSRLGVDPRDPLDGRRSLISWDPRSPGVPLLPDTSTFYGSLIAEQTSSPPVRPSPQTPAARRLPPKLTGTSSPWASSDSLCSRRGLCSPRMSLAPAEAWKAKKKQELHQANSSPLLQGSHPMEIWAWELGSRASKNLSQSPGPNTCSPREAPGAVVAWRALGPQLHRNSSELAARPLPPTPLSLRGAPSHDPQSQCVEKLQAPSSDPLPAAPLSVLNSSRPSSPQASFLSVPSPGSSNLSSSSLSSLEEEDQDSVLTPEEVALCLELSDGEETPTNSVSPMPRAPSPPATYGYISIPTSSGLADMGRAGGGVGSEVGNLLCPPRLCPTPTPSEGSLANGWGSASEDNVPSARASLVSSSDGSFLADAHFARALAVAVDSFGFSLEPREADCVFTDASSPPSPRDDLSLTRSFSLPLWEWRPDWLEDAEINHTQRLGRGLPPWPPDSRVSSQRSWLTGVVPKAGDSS

[2] = biological target: T2, N-terminal FLAG-tagged human ROBO4 extracellular region/domain deletion variant hROBO4-210 (human, UniProt Q8WZ75 210-1007); experiment: flow cytometry, HEK293 cells transfected with pCI-FLAG-hROBO4-210, anti-mouse IgG FITC; control histogram IgG (Mouse IgG2a)
T2 construct: On transfected HEK293 cells; also called pCI-FLAG-hROBO4-210; pCI-hROBO4-210
T2 sequence: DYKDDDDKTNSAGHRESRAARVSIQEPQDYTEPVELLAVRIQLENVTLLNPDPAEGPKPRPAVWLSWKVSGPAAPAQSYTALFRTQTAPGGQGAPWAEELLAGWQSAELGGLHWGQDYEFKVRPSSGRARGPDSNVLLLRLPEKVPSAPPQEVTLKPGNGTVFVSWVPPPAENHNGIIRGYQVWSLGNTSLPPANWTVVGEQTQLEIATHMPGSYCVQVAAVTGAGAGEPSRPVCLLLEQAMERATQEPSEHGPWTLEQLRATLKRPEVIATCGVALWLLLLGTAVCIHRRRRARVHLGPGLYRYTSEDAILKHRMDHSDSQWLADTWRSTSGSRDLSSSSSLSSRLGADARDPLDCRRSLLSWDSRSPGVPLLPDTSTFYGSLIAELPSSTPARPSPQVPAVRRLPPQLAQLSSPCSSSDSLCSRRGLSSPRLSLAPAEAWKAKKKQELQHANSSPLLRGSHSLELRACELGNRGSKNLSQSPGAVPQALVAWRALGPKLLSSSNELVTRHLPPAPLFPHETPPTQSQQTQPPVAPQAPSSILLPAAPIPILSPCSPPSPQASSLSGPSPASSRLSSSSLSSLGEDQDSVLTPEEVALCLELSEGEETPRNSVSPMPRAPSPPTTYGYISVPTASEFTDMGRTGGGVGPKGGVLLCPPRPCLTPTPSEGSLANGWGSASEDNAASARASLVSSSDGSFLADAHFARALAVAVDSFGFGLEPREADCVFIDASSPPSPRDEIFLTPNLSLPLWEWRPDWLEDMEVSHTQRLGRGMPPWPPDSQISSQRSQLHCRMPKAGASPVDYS
Experimental: HEK293 cells were inoculated at a concentration of 1.5×10⁶ cells/dish to a 60-mm dish (manufactured by Corning Inc.) and cultured overnight in a DMEM medium containing 10% FBS at 37° C. under 5% CO₂ conditions. […] On the next day, the expression vector-transfected cells were treated with TrypLE Express (manufactured by Life Technologies Corp.), washed with PBS containing 5% FBS, and then suspended in PBS containing 5% FBS. The obtained cell suspension was used in flow cytometry analysis.
Each cell suspension prepared in 4)-5-1 was centrifuged, and the supernatant was removed. Then, MAb1, a positive control Monoclonal ANTI-FLAG M2 antibody produced in mouse, or a negative control Mouse IgG2a was added at a concentration of 10 μg/mL to 2×10⁵ expression vector-transfected cells, and the resulting suspension was left standing at 4° C. for 1 hour. The cells were washed once with PBS containing 5% FBS. Then, Anti-Mouse IgG FITC conjugate diluted 1000-fold with PBS containing 5% FBS was added thereto, and the resulting suspension was left standing at 4° C. for 1 hour. […] Data was analyzed using Flowjo. The histogram of FITC fluorescence intensity was prepared. The antibody was determined to bind to a cell when the histogram of MAb1 was shifted to a stronger fluorescence intensity region compared with the histogram of the negative control Mouse IgG2a. […]

binding result [1]: no binding (tested: 10 µg/mL)
B1: humanized MAb1 antibody H-2140 (antibody, human IgG2, kappa, V domains shown)
VH: EVQLVESGGGLVQPGGSLRLSCAASGFTFSTYAMSWVRQAPGKRLEWVATISQGGTYTYYPDSVKGRFTISRDNAKNTLYLQMNSLRAEDTAVYYCARLIYYDYLDYWGQGTLVTVSS
VL: DIVMTQSPLSLPVTLGEPASISCRSSQSLENSNGNTYLNWYLQKPGQSPQLLIYRVSNRFSGVPDRFSGSGSGTDFTLKISRVEAEDVGVYYCLQVTHVPWTFGPGTKVDIKR
notes: Human IgG2 / kappa constant regions; also called hMAb1-H4-type heavy chain + hMAb1-L1-type light chain

binding result [2]: no binding (tested: 10 µg/mL)
B2: anti-ROBO4 mouse monoclonal antibody MAb1 (antibody, mouse IgG1, V domains shown)
VH: EVQLVESGGGLVKPGGSLKLSCAASGFTFSTYAMSWVRQTPEKRLEWVATISNGGTYTYYPDSVKGRFTISRDNAENTLYLQMSSLRSEDTAMYFCARLIYYDYLDYWGHGTTLTVSS
VL: DAVMTQTPLSLPVSLGDQASISCRSSQSLENSNGNTYLNWYFQKPGQSPQLLIYRVSNRFSGVLDRFSGSGSGTDFTLKISRVEAEDFGVYFCLQVTHVPWTFGGGTKLEIKR
notes: Mouse IgG1 (gamma1), kappa light chain, purified from hybridoma supernatant; also called parent antibody MAb1
